From publication PMC4338336

T1: Msl5-(KH-QUA2) (Saccharomyces cerevisiae, UniProt Q12186 144-271)
T1 sequence: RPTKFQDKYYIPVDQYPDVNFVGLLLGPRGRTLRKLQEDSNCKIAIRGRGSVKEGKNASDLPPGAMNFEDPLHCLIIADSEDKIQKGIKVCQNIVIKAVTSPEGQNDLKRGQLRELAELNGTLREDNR


How the values were obtained:
Msl5-(KH-QUA2) [1] = biological target: T1, Msl5-(KH-QUA2); assay: EMSA
Msl5-(KH-QUA2) [2] = biological target: T1, Msl5-(KH-QUA2); assay: EMSA; remark: listed apart in the source

Row | Binder | apparent K (half saturation) (Msl5-(KH-QUA2) [1]) | binding result (Msl5-(KH-QUA2) [2])
1 | UAUACUAACAA (ssRNA) [11-mer branchpoint RNA (WT)] | 140 nM | –
2 | UAUACCAACAA (ssRNA) [11-mer RNA U4C] | – | no binding
3 | UAUACGAACAA (ssRNA) [11-mer RNA U4G] | – | no binding
4 | UAUACUAGCAA (ssRNA) [11-mer RNA A6G] | – | no binding
5 | UAUACUAUCAA (ssRNA) [11-mer RNA A6U] | – | no binding
